Reference: a protein production outcome set (Wang et al. 2014)

Assay: label from the status in PepcDB records
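Further: failed if final PepcDB status was selected cloned or expressed and not failed if soluble or beyond.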

Row | Sequence | protein production
1 | MRLLAVFVSSRLSPEDPLYARWVRYGEVLAEEGFGLACGGYQGGMEALARGVKAKGGLVVGVTAPAFFPERRGPNPFVDLELPAATLPQRIGRLLDLGAGYLALPGGVGTLAELVLAWNLLYLRRGVGRPLAVDPYWLGLLKAHGEIAPEDVGLLRVVADEEDLRRFLRSL | not failed
2 | MRLLVAFAVIYFISISPVCAENTASTINIPTPAIESPLASKSLLLDISLIGQEKLVTVGQHGHILLSNDGKKWQQANVPVQVTLTNVFFLNEQLGWAVGHDATILHSQDGGLNWQVQQYLPLLEKPLFDIYFKNPQQGIAVGAYGQVFRTNDGGSTWQNEFHQEILLADDVEYLNELKAEDEAAYLDEITFILPHFNRLVQDGGSLFLLGETGLLAKSDDFGLTWQQFDNFYQGSFFSLARTKTGNVLVAGLRGHVFRSLNHGSQWDEVPTNTTALLNDIVFANDERIFILGNNGMLLISTDDGESFSKIPQQDGKTLIAGVWFKGQLIAVSDVGIKVVDLSQE | failed
3 | MRLNKLFILYSLFGILMASCIKDEAPNAEADITGISFEEDVLASARFNLNPSYNDNLQAYPILVKVKEGTPLNKLSPLFELTPGATISPESGSEHDFSDGKRVKYTVTSENKAWQRVYSIGVREQSVSDIPNEFHFEDIRLINGINPKYKYQEFYEEQDGLELTWASGNEGFNWAASSSATENYPTSQYDNGKNGKCAKLETRLTGSLGAMVGMPIAAGNLFIGEFDMTNALTSPLKATHFGTPFCYKPSRLKGWYKYKAGERFYENGGYTDRKDVMNIYAIFYEGESYNEAGEVTEVILDGNLPNQNYEHPSMVALALISNPHETDDWEAFDIPFDYQRYGKEIDETKLAKGKYKLSIIFASSKNGATFEGAPGSTLLVDDVELIFE | failed
4 | MRLNYPSKVSEEGFQVMVLSLSILKKSFNDFLSTRMLLINLGPILLSLAFFGAVFYYNGGNIVGYCQTLLPQSLNDYSHSQGFFAGVFAWVFKALVYFLIFWIVILLSLVINIFASIFYTPLVVSYLHQKYYPHVVLEEFGSILFSIKYFLKSLAFMLLFLAVLTPFYFIPFIGVFGVFFSIVPHFLFFKNTMSLDIASMIFNHQSYQNLLKQHRLKHYRFSFFCYLFSLIPFFNFFATLLQTLMLTHYFFIFKEKEC | not failed
5 | MRLPFAITRFAAGAALAALGTSAFANCVANPPTQSNASFPASLAGKLAYHSYVSYGDGTSQLFIYDFAARTLTQVSKSAWGIQDPMNAVFSPDGKWLAFMGITNNAWNVFLWQVGSSSQPVNMTNSTGQTRNEDPKFSADGKSLFFKQSGDVMQATLSYTSTGPIFTSVVDITNTAPATENSMPFATPDGSAVYFATGTGAGMGLYKETIATHATFAFDTPAGLQTYYPIVRADGTVFYARWKDAASQADQIYTKVNPGDTPNQLSINDCNSNNSDPAPVNGTNYVFFSSTTAGGYQLYLGDVSTGQRWSLSQFGVNSDTTKAKLGSNYYAGGTTASTSGQTTRLLSQGMPASASSSYNSSLGAANAFDGDTANTRWDSIEGSAAGTQWLMVDLGTVRTINGVDLYWDAGAKTYAIQTSSDGVNWTSIYSTSNGIAYGHAVLSNLRGSGRYVRMYGTQRATQWGYSIDEMQVWGY | failed
6 | MRLPGSGYSYTVIQSKNNYSQKSSFGISFVILSRGTKIFREDLFEFLSNFDFIREIISIEKQSNRSSLQFISESYGKLKFILLSDDLNSGEKVNLAMKESSCDFVFVLQSDMYLLNPFWIPNIFDEIVKKNVLLVGGEFFDKEEEMIPSIFLPSIDKKQKFKVILVNSEKDYEKTLITMDYCGLYSKEKFLQLGGFDARIQNEYFQRIDFGLRAIYFGEHVYIYRKLRIQYTALNSPENLTKSKSFLIFLLKNYVPIFVGNGVVFSFLRFCKICLKYKINPFLFQKEFKEIKGEITKNSLRFKGDLKSAIELWENDIID | failed
7 | MRLRNWPRWQRWLNRRIPPASSVELNQRRVFILPTRQGGAFGLALLVMLLAAINYQNSLAYGLTFLLLSLGVVTILHTYRNLAGLRLTALGADPVFAGERAGFRVRLESPRRARQAIAVGWPERPLEYADLAGDAAAEVLLFHPTERRGWLRPGRLRVESRFPLGLLVAWSWVDLRQQALVYPRPQAGEPLLAPGAEDAEDQGRALASAGVDDYQGLRAYQPGDSRRRLHWKAFSRGQGLLVKDFAALGGEDLWLEFERLGGDLESRLGRLCHAVLELSARQQPYGLALPGTRLQPASGEAQREACLRALALFGAAR | failed
8 | MRLSILRARSTGSGQASPRASRTRGARSAAAGGSWVVIFLPLHCGTRSLTMPRRARNAQTASSCSLERPNEWKEPPPVSGFEVTIVDAESVIAWVKAGKVTVFDVREPEEFAAAHIEGAIPNPLSRFDASLIPTDSPVPVVLHCRSGVRCGHAADRLRASGFQGKINRMAGGIIAWQAAGGPVVSG | failed
9 | MRLSKEFIGLGIITASLIFGSSLPDIYKGIVILIVAGCLWFFELLPLPVTSLAIPIMAVFLGIFNLKEALTYFAHPIIFLFLGGFMLAQALKNHNLDKFIAYKLLNYGKDFKTTCFLMFLSAYFLSMWISNTSATLILLPIALGLLHKKTGKLRDFLLLGVAYSASIGGIATIIGSPPNAIASSYLDYGFFSWFKVGFPISLLLFLICTLTLYIYFKKWIPKEDIAIQARMELSRNAYKLLVIFVLIASLWIISDYLSEIFNVQYFDSVIAIFAIILLFVFNLVEVNDFKKIDWGTLILFGGALCLGGVIVKSGANTFLSEKLIAILGNLTPIVLLFLVVTITIILTNFISNTGLTGIIVPILFGVSLGIPKEILILAVGMSASCSFILPVGTPPNAIVYSEGVKKEEMMKIGMILSILSAAVITLYSILYL | failed
10 | MRMENQKDLQENYLKVLERVELGSRVSGTVVNIMKDYVLVDIGYKSEGFIKIEEFENVPQVGDRLEAIVVRIGGELGLILSVEKLNSLNFQDKVYEYIQNKKIIKGKVLVELPNGYKIQINENVSGFMPFYLSSKSKDEKLKRGSVVEFYILEASEADGLRLILDRRTLEKERDLAKRIELVSSYNEEDVVDGVVERITEYGAIVKIKNFVTGILHKRNIAFNQVENVEDFVRVGDKLKLKIIKINPQTGKMELSLKALKANPWDSVDVKYKIDSIVKGKVVKILPFGAVIELDSELSGFLHISNFSWIRVVKSPQELIKLGQIVEVKILEIDKENQKISLGIKQINENPWERLTEKYPIGRVVQGVVTNITKTGAFVNIEEGIDAYVSKFDISWLEEIDPEEYFKIGDLVNGKVLEVDKRKRNVRLGIKQLEESPWEDFSKSYKKGDTIEVEIVEKKSKGFQVRVYNKIMGFISKIQLGDTKESSLETFEKLNVGDKLKVVITSIDSKDKSVLLSYREYENQRSREEISSYLFKGNDEESYKPFENLLKRDELEHHHHHH | not failed
11 | MRMIGRRRALEHRITLIAVIVILQLAATLFFLVDVTGDLRADGSGVHIAAEAGAAIALLVGVVFGAAQVRWLVLRARQDEAAVAAAKGALADLARLRFSDWKLTAAEADVALFALKGCDVAEIAALRGAAAGTVRAQLARVYAKAGVNSQSALMALFLEELVEAGEG | failed
12 | MRMKHLTVAALTLLLSVSCSQRQEDYPFRNPDLPIDERIDDLLKRLTAEEKIGQMMNTTPAIERLGIPEYDWWNEALHGVARAGKATVFPQAIAMAATFDDDALYETFTMVSDEARAKYHQYQKNKEYDRYKGLTFWTPNINIFRDPRWGRGMETYGEDPYLTERMGVAVVKGLQGDDPKYFKTHACAKHYAVHSGPEWNRHEFDVTVTPRDLWQTYLPAFEALVKKGNVQEVMCAYNRYQGKPCCSSDKLLIDILRNSWGYENIILSDCGAINDFWQRDERTPRHETHPDAESASADAVLNGTDLECGNSYKALIKALKEGKISENDLDVSLRRLLKGRFELGMFDPDERVPYAQIPYNVVESPEHVAQALEMAHKSMVLLKNKNNTLPLSKTIRKIAVVGPNAADSTMLWANYNGFPTHTVTILEGIRNKVPDTEVIYELGCNHAADFVIQDLGNHITSPAGQGFASEFYNNTEFKGEAVYKGLASQLHYTTGGNTQFAPNVNLTNFTARFTGEFEAPETEQVEIKLSGNDAFRLFIGDEKVAEVWENEYGAEKTYMLNAEKGKKYPVKIEYMQRTGSADLNFQIGTRRPVDYAATAAKVKDADVIVYVGGISPRLEGEEMPVNVEGFKKGDRTNIEIPKVQQEMVKALKATGKPVVYVLCTGSALALNWEDANIDAILNAWYGGQEAGTAVADILFGDYNPSGRLPVTFYKSIDQLPDFEDYSMKGRTYRYMTETPLYPFGYGLSYTNFAYRNAKLSSGKITKDQSVTLTFDIANTGKMDGDEVAQIYIKNPNDPEGPIKALKAFLRVHVKAGDSQEVNIELTPEAFHSFNDNTQTMEVRPGKYQILYGGSSDEKALERLELTIE | failed
